Data published in article PMC4899803.

Target: cytochrome bd from Escherichia coli, His6-tagged (His6-CydABX) (E. coli) (UniProt P0ABJ9)
Assay: SEC; 500 ug purified cytochrome bd on Superose 6 10/300 in 50 mM MOPS, 100 mM NaCl, 0.1% LM, pH 7; UV 280 nm, refractive index and right angle light scattering monitored

- stoichiometry N: 4
Substance: cytochrome bd from Escherichia coli, His6-tagged (His6-CydABX) (from UniProt P0ABJ9 1-522; P0ABK2 1-379) (complex)
